We go through six molecules from publication PMC10201424, “Biochemical characterisation of Mer3 helicase interactions and the protection of meiotic recombination intermediates” (Nucleic Acids Research, 2022).

T1: Mer3-Strep (full-length S. cerevisiae Mer3 with C-terminal 2xStrep-II tag) (S. cerevisiae, UniProt P51979 1-1187, phosphorylated in insect cells; high-confidence sites S17, S80, T100, S398, S958, T1092)
T1 sequence (looked up): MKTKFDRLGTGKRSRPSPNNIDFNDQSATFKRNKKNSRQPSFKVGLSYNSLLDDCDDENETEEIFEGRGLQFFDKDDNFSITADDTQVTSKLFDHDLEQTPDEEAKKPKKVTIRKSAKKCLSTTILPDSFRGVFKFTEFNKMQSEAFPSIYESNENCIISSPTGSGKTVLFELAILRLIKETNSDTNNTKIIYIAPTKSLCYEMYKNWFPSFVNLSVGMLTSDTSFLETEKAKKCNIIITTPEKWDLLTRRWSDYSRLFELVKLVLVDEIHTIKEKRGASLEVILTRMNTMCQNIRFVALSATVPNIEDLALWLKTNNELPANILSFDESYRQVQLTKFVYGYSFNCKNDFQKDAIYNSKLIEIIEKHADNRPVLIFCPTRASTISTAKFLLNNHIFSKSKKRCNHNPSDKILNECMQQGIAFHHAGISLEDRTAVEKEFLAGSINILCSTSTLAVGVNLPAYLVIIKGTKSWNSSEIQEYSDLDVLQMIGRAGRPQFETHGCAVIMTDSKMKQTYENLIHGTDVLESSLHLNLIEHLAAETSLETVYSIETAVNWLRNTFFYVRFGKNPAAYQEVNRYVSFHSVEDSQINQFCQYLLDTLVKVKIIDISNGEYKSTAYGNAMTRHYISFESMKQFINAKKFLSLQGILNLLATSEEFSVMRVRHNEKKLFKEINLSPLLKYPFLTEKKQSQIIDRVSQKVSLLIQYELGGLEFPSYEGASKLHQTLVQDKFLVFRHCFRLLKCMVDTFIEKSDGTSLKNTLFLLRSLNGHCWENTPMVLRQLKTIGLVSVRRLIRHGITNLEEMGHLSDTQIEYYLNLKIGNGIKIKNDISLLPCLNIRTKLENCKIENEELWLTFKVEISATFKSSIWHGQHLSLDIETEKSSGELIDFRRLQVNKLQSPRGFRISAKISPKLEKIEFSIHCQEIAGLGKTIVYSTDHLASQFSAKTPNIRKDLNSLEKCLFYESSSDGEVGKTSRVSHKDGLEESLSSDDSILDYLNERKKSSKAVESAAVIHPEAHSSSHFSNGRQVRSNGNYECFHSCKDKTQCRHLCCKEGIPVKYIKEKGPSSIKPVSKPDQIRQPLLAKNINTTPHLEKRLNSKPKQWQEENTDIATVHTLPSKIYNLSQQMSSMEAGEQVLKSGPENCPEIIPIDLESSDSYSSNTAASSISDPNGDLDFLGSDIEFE

B1: Rmi1 (as used in MST and XL-MS) (natural protein, S. cerevisiae, UniProt Q02685 1-241, looked up)
chain: MSFSSILSQDITDDITPPAYSATLGSREQIVFRAYQNEPWLAGTASNLILDKKLVIVDRELLFQVLMVENITKSKLTQIDDIKTKLDPKKQKVDRLRSGAQGNGAKKYEVITQVDMEDDGNVADNNCAKENNSNNNSSAAKNKAVFKLTLQSKSGDVFFAINSTPISWSSCMLGSKIVILPGTVFNRGVFILKDSQVIFLGGINRVWNENRDQKFCDYLESKLQRDKQLVNGGSKKRKAND
notes: Rmi1, S. cerevisiae, from SK1 strain genomic DNA; The methods describe GST-Rmi1 and untagged (3C protease cleaved) Rmi1; also called Rmi1 alone; source: Hi5 insect cells, purified
B2: His-Top3 (enzyme, S. cerevisiae, UniProt P13099 1-656, looked up)
chain: MKVLCVAEKNSIAKAVSQILGGGRSTSRDSGYMYVKNYDFMFSGFPFARNGANCEVTMTSVAGHLTGIDFSHDSHGWGKCAIQELFDAPLNEIMNNNQKKIASNIKREARNADYLMIWTDCDREGEYIGWEIWQEAKRGNRLIQNDQVYRAVFSHLERQHILNAARNPSRLDMKSVHAVGTRIEIDLRAGVTFTRLLTETLRNKLRNQATMTKDGAKHRGGNKNDSQVVSYGTCQFPTLGFVVDRFERIRNFVPEEFWYIQLVVENKDNGGTTTFQWDRGHLFDRLSVLTFYETCIETAGNVAQVVDLKSKPTTKYRPLPLTTVELQKNCARYLRLNAKQSLDAAEKLYQKGFISYPRTETDTFPHAMDLKSLVEKQAQLDQLAAGGRTAWASYAASLLQPENTSNNNKFKFPRSGSHDDKAHPPIHPIVSLGPEANVSPVERRVYEYVARHFLACCSEDAKGQSMTLVLDWAVERFSASGLVVLERNFLDVYPWARWETTKQLPRLEMNALVDIAKAEMKAGTTAPPKPMTESELILLMDTNGIGTDATIAEHIDKIQVRNYVRSEKVGKETYLQPTTLGVSLVHGFEAIGLEDSFAKPFQRREMEQDLKKICEGHASKTDVVKDIVEKYRKYWHKTNACKNTLLQVYDRVKASM
notes: Top3 (type IA topoisomerase), S. cerevisiae, from SK1 strain genomic DNA; also called His-tagged Top3; source: Hi5 insect cells, purified (TALON, heparin, ResourceS, SEC); not shown: His6, N-terminal, kept
B3: Top3, untagged (chain of the Top3/Rmi1 complex) (enzyme, S. cerevisiae, UniProt P13099 1-656, looked up)
chain: B2 chain
notes: Top3 (type IA topoisomerase), S. cerevisiae, from SK1 strain genomic DNA; untagged; Same chain as in m10 and m11; source: Hi5 insect cells (co-expressed with GST-Rmi1), purified with Rmi1
B4: Top3/Rmi1 complex (as used in MST and XL-MS) (complex, S. cerevisiae)
chain 1: B2 chain
chain 2: B1 chain
notes: Top3 (type IA topoisomerase), S. cerevisiae, from SK1 strain genomic DNA; untagged; Rmi1, S. cerevisiae, from SK1 strain genomic DNA; The methods describe a GST-tagged and an untagged (3C protease cleaved) preparation; source: Hi5 insect cells (co-expressed from pBIG1a), purified
B5: MBP-Mlh2 (chain of the MBP-Mlh1/MBP-Mlh2 complex) (natural protein, S. cerevisiae, UniProt Q07980 1-695, looked up)
chain: MTIHQLSPESQWKIVSSSFIYGPVAAVRELLDNSIDSGAKKVFIDVDSTTGGCEYISVKDDGSGVDIIDRPSMCLEYTTSKMSSLGDISILTTLGFRGEALFLLSNLCNQKGSMQVETKTADDVIGEKWLVDSKGGITNGKRYKVSCPVGTTVILRKLLGGLRARYLEISSRPRKTFDELIYLINHYSLIHRNIRFYFSLVSLQKNGAIERKQMQETLDPKISRARSLSLLARLKKPVPLNFIVEENFVIDEKINLDLILPRMVPESDVINIKRRFKFLSVNERALSLNLETGKTISKLLSSIYRDFSLLDPMVWFINLNCDTKLLDVNIEPEKNDVMIKSFEVIFKKIENKLKLLLEERIGIETNMLGDKHVQPSINEKTSPALVIPTPDAENEISKGCGAVSGKDKTDIPQKNSDLIVPTFYDEANLENTTIVAATPSPTKFSEDKALDEQTQLTISSYRSSSSGSMASEDSTNWRHNFQQELSENSEVAGAGSSTLPSSLTYNYIETIPENEDLELSKDASISNPFMITKIRNVNKKLSENLLEAKRTSCGDANKRGMPNERQLSNTEKKELIKLQQTYGKRNNTVDMTIPRNSKKKVTDNYIKKASCMHKTRPKLMHFSEYTNNYVYTLKNEKIVKHDSDNFAKETLWLRSRDDATSPSSSLLQALRAHVKKPGHIEATTNEWCLFTPDSP
notes: Mlh2, S. cerevisiae, from SK1 strain genomic DNA; Same chain as in m6; source: Hi5 insect cells (co-expressed with MBP-Mlh1), purified (MBP-trap, heparin, SEC); not shown: His6, N-terminal, kept; MBP, N-terminal, kept

“And” between values parts separate entries of the source, which are not always exact repeats. Equal values may be shown once.

Assay [1] deals with Mer3-Strep (full-length S. cerevisiae Mer3 with C-terminal 2xStrep-II tag) (S. cerevisiae) (UniProt P51979). Kind of assay: SEC-MALS; full-length Mer3, 10 μM at injection, Superose 6 5/150; 30 mM HEPES pH 6.8, 300 mM NaCl, 1 mM MgCl2, 5 μM ZnCl2, 1 mM TCEP.
The target in assay [2] is T1, Mer3-Strep (full-length S. cerevisiae …). Kind of assay: MST; 45 nM RED-NHS labelled Mer3, partner titrated; 50 mM Tris–HCl pH 7.4, 150 mM NaCl, 10 mM MgCl2, 0.05% Tween-20; 25°C; triplicates. To be noted: both partners purified.
Assay [3] concerns the target B3. Kind of assay: cross-linking; XL-MS with DSBU, proteins 3 μM, 1 h at 25°C; 30 mM HEPES 6.8, 150 mM NaCl, 5% glycerol, 1 mM MgCl2, 1 mM TCEP; samples: Mer3, Mlh1/Mlh2, Mer3/Mlh1/Mlh2, Top3/Rmi1, Mer3/Top3/Rmi1. The following applies: both partners purified.
For assay [4], the target named is T1, Mer3-Strep (full-length S. cerevisiae …). Kind of assay: pull-down; Mer3-Strep (0.7 μM) held by anti-Strep antibody and protein G beads (the legend says StrepTactin pulldown), His-Top3 1.3 μM; 25 mM HEPES pH 7.5, 5% glycerol, 50 mM NaCl, 1 mM TCEP, 0.1% Tween-20; western blot. The following applies: both partners purified.
Assay [5] shares this target. Kind of assay: cross-linking; XL-MS with DSBU, proteins 3 μM, 1 h at 25°C; 30 mM HEPES 6.8, 150 mM NaCl, 5% glycerol, 1 mM MgCl2, 1 mM TCEP; samples: Mer3, Mlh1/Mlh2, Mer3/Mlh1/Mlh2, Top3/Rmi1, Mer3/Top3/Rmi1. To be noted: both partners purified.

With “Mer3-Strep (full-length S. cerevisiae Mer3 with C-terminal 2xStrep-II tag) (from UniProt P51979 1-1187) (enzyme)”, the stoichiometry N in assay [1] is 2.

In the case of B1, the dissociation constant (Kd) in assay [2] was 1990 nM and 1980 nM. The binding result in assay [3] is given as “binds”.

On to B2, for which the binding result in assay [4] was “binds”.

For the molecule B3, in assay [5], the binding result was “binds”.

In assay [2], B4 came in with a Kd of 844 ± 148 nM.

For the molecule B5, the binding result in assay [5] is “binds”.
